Laboratory results reported in publication PMC10628199, “Structural and functional investigations of syn-copalyl diphosphate synthase from Oryza sativa” (Communications Chemistry, 2023).
Several values for one entry are separate records, joined by “and”; a condition that tells them apart may be missing. Equal entries are not always repeated. Blank lines part the entries; values can stand above or below the molecule they belong to.

Key:
OsCyc1 (full-length) = biological target: T1, OsCyc1 (full-length) (Oryza sativa, UniProt Q0JF02); settings: pH 8.0, 16 °C, 2 h, no added Mg2+; product syn-CPP
T1 construct: gene CPS4
T1 sequence (Q0JF02 whole entry): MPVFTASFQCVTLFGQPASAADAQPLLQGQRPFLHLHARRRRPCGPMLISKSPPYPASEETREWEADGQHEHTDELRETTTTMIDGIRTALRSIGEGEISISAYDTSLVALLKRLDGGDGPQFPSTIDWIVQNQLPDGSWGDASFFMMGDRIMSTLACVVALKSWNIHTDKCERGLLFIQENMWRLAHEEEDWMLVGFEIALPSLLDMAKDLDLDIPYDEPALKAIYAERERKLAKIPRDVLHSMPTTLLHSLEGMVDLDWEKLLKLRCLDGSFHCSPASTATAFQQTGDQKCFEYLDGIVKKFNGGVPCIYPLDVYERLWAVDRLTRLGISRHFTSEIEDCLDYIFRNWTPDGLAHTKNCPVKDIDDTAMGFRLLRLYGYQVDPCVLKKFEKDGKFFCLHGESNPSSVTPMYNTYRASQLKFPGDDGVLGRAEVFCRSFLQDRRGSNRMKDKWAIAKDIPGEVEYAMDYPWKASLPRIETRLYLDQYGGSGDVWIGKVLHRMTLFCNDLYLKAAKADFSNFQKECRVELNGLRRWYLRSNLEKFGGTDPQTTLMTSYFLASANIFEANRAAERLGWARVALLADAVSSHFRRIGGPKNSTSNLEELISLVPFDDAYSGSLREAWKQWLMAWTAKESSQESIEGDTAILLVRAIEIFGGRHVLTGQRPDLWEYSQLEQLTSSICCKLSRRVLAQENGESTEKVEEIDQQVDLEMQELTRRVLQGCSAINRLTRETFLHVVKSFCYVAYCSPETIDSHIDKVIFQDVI

OsCyc1^69–767 = biological target: T2, OsCyc1^69–767 (Oryza sativa, UniProt Q0JF02, D367A); settings: 0.1 mM GGPP soaked; 20 mM Tris-HCl pH 8.0, 200 mM NaCl, 2 mM DTT, 5 mM MgCl2; active site between beta and gamma domains
T2 construct: gene CPS4
T2 sequence (Q0JF02 69-767 D367A): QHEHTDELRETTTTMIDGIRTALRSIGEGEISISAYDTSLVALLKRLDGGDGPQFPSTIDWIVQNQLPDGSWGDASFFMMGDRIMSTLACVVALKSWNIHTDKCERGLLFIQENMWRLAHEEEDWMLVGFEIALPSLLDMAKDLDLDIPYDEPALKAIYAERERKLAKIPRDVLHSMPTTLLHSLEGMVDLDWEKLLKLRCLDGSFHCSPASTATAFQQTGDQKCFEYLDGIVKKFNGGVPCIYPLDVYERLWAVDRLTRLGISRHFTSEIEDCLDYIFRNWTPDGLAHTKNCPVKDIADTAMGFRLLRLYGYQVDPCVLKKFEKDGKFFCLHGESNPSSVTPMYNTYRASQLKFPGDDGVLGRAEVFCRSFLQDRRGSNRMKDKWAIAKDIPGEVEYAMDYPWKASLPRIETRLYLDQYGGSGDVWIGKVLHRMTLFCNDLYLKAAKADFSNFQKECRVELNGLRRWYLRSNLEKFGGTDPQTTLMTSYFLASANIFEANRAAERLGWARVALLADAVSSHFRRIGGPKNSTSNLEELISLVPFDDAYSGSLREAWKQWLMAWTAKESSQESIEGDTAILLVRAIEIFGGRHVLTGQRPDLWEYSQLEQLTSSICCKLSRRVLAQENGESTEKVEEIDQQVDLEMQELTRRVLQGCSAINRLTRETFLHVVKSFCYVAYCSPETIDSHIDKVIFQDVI

[1] = biological target: OsCyc1^D367A mutant (in complex with the substrate GGPP) (Oryza sativa) (UniProt Q0JF02); experiment: cryo-EM structure; OsCyc1 D367A at 3 mg/mL in buffer B, soaked with 0.1 mM GGPP; hexamer used as initial model for 3D classification; 4.0 Å
[2] = biological target: the molecule itself; experiment: cryo-EM structure; WT OsCyc1 at 1.8 mg/mL in buffer B (20 mM Tris-HCl pH 8.0, 200 mM NaCl, 2 mM DTT, 5 mM MgCl2); dimers, tetramers and hexamers selected separately after 2D classification
[3] = biological target: the molecule itself; experiment: crystal structure; OsCyc1 69-767 at 10 mg/mL, hanging drop, 18 °C, 2% 1,4-dioxane, 0.1 M Tris pH 8.0, 15% PEG 3,350; space group P212121, hexamer in the asymmetric unit; 3.5 Å

- GC-MS of dephosphorylated product (OsCyc1 (full-length)): OsCyc1 catalyzes GGPP to form syn-CPP
Molecule: CC(C)=CCC/C(C)=C/CC/C(C)=C/CC/C(C)=C/COP(=O)(O)OP(=O)(O)O [GGPP]
- cryo-EM structure of the complex, 4.0 A (OsCyc1^69–767): cryo-EM structure of the OsCyc1^D367A mutant in complex with substrate GGPP

- stoichiometry N [1]: 6
Molecule: OsCyc1^D367A mutant (in complex with the substrate GGPP) (from UniProt Q0JF02 69-767) (enzyme)

B1: OsCyc1, wild type, as used for cryo-EM (enzyme, Oryza sativa)
chain: LISKSPPYPASEETREWEADGQHEHTDELRETTTTMIDGIRTALRSIGEGEISISAYDTSLVALLKRLDGGDGPQFPSTIDWIVQNQLPDGSWGDASFFMMGDRIMSTLACVVALKSWNIHTDKCERGLLFIQENMWRLAHEEEDWMLVGFEIALPSLLDMAKDLDLDIPYDEPALKAIYAERERKLAKIPRDVLHSMPTTLLHSLEGMVDLDWEKLLKLRCLDGSFHCSPASTATAFQQTGDQKCFEYLDGIVKKFNGGVPCIYPLDVYERLWAVDRLTRLGISRHFTSEIEDCLDYIFRNWTPDGLAHTKNCPVKDIDDTAMGFRLLRLYGYQVDPCVLKKFEKDGKFFCLHGESNPSSVTPMYNTYRASQLKFPGDDGVLGRAEVFCRSFLQDRRGSNRMKDKWAIAKDIPGEVEYAMDYPWKASLPRIETRLYLDQYGGSGDVWIGKVLHRMTLFCNDLYLKAAKADFSNFQKECRVELNGLRRWYLRSNLEKFGGTDPQTTLMTSYFLASANIFEANRAAERLGWARVALLADAVSSHFRRIGGPKNSTSNLEELISLVPFDDAYSGSLREAWKQWLMAWTAKESSQESIEGDTAILLVRAIEIFGGRHVLTGQRPDLWEYSQLEQLTSSICCKLSRRVLAQENGESTEKVEEIDQQVDLEMQELTRRVLQGCSAINRLTRETFLHVVKSFCYVAYCSPETIDSHIDKVIFQDVI
notes: syn-copalyl diphosphate synthase OsCyc1 (OsCPS4), Oryza sativa, wild type; the cryo-EM methods say only 'OsCyc1'); the deposited entries tell the construct; Probably the same protein as m1 or m2; also called WT OsCyc1; source: E. coli BL21(DE3), purified; in buffer B
- stoichiometry N [2]: 2 and 4 and 6

B2: OsCyc1^69–767 (N-terminal truncation variant of syn-copalyl diphosphate synthase from Oryza sativa) (enzyme, UniProt Q0JF02 69-767, looked up)
chain: QHEHTDELRETTTTMIDGIRTALRSIGEGEISISAYDTSLVALLKRLDGGDGPQFPSTIDWIVQNQLPDGSWGDASFFMMGDRIMSTLACVVALKSWNIHTDKCERGLLFIQENMWRLAHEEEDWMLVGFEIALPSLLDMAKDLDLDIPYDEPALKAIYAERERKLAKIPRDVLHSMPTTLLHSLEGMVDLDWEKLLKLRCLDGSFHCSPASTATAFQQTGDQKCFEYLDGIVKKFNGGVPCIYPLDVYERLWAVDRLTRLGISRHFTSEIEDCLDYIFRNWTPDGLAHTKNCPVKDIDDTAMGFRLLRLYGYQVDPCVLKKFEKDGKFFCLHGESNPSSVTPMYNTYRASQLKFPGDDGVLGRAEVFCRSFLQDRRGSNRMKDKWAIAKDIPGEVEYAMDYPWKASLPRIETRLYLDQYGGSGDVWIGKVLHRMTLFCNDLYLKAAKADFSNFQKECRVELNGLRRWYLRSNLEKFGGTDPQTTLMTSYFLASANIFEANRAAERLGWARVALLADAVSSHFRRIGGPKNSTSNLEELISLVPFDDAYSGSLREAWKQWLMAWTAKESSQESIEGDTAILLVRAIEIFGGRHVLTGQRPDLWEYSQLEQLTSSICCKLSRRVLAQENGESTEKVEEIDQQVDLEMQELTRRVLQGCSAINRLTRETFLHVVKSFCYVAYCSPETIDSHIDKVIFQDVI
notes: plastid targeting peptide removed; codon-optimized synthetic gene; monomer 80.8 kDa; Cloned in pET-24a(+) between NdeI and XhoI 'including a His-tag'; this cloning would usually give a C-terminal His6 (surmise); also called truncated OsCyc1; pseudo-mature protein
- stoichiometry N [3]: 6
